Test system: Nc1nc(=O)[nH]cc1F
Assay: steady-state kinetics
Type: biochemical, Saccharomyces cerevisiae
Details: Zn2+

For “yeast cytosine deaminase (yCD) (Saccharomyces cerevisiae S288C; E64A)”, the Km was 33 ± 6 mM, the kcat was 7.3e-05 ± 6e-06 s⁻¹ and the kcat/Km was 0.0022 M⁻¹ s⁻¹.
With “yeast cytosine deaminase (yCD) (Saccharomyces cerevisiae S288C; E64D)” the Km was 19 ± 6 mM, the kcat was 0.0051 ± 0.001 s⁻¹ and the kcat/Km was 0.26 M⁻¹ s⁻¹.

From publication PMC3272785
